Test results reported in patent US20110236874A1, “METHOD FOR FORMATION OF RENAL TUBULES” (priority 2008, published 2011).
Entries after “also recorded” stand apart in the source; their conditions may differ.

Columns and labels:
[1] = system: primary human renal proximal tubule cells (HPTCs); test: Quantification of α-SMA expression by immunoblotting; type: cell-based; details: HPTCs on laminin + collagen IV treated with BMP-7 100 ng/ml; control uncoated TCP; FIG. 3
Procedure: Immunoblotting: For immunoblotting, cells were lyzed in 100 μl of heated NuPage LDS sample buffer (Invitrogen). Samples were collected, heated at 95° C. and centrifuged at 10,000 g for 2 minutes to pellet cell debris. Protein concentrations of the supernatants were measured with a NANODROP™ spectrophotometer (Biofrontier, Singapore). Appropriate amounts of the supernatants were loaded onto a NuPage precast gel (4-12%, Invitrogen) with the size marker PAGE Ruler Plus (Fermentas, Hanover, Md., USA). Proteins were transferred to iBlot membranes after electrophoresis. […]
After washing, the membranes were incubated with 0.2 μl/ml of both peroxidase-conjugated sheep anti-mouse antibody and donkey anti-rabbit antibody. […] The films were scanned and analyzed using Adobe Photoshop CS3.
FIG. 3. Quantification of α-SMA expression by immunoblotting. […] Proteins were extracted in each case from 3 replicas, and the extract obtained from each sample was loaded onto a separate lane of the gel. α-SMA (lower bands, 42 kD) and α-tubulin (loading control, upper bands, 50 kD) were detected by immunoblotting. […] (B) The intensities of the bands shown in (A) were determined. […]

[2] = system: primary human renal proximal tubule cells (HPTCs); test: α-SMA immunostaining (myofibroblasts) in HPTC cultures on ECM coatings; type: cell-based; details: BMP-7 100 ng/ml constantly in the medium
Procedure: Immunostaining, histochemistry, and imaging: Immunostaining was performed as described in Sadoni et al. J Cell Biol 1999; 146(6): 1211-1226. The following primary antibodies were used: rabbit anti-ZO-1 (zonula occludens-1, Invitrogen, Carlsbad, Calif., USA) and mouse anti-α-smooth muscle actin (SMA) (Abcam, Cambridge, UK). Alexa Fluor 488-conjugated anti-rabbit (Invitrogen) and TRITC-conjugated anti-mouse (Invitrogen) secondary antibodies were applied. After immunostaining, cell nuclei were stained with DAPI and cells were mounted with vectashield (Vector Laboratories, Burlingame, Calif.) for microscopy. Histochemical detection of γGTP activity and controls were performed as described in Ryan et al. Kidney Int 1994; 45(1):48-57. Imaging was performed with a Zeiss AxioObserver Z1 microscope (Carl Zeiss, Jena, Germany) using the Zeiss AXIOVISION™ imaging software.
Disintegration of tight junctions after a certain time point is indicated. […]
Based on these observations, the question arose why the monolayer always disintegrated and could not be maintained for longer periods. […] Therefore, the presence of α-SMA-positive cells was monitored in the final experimental series. α-SMA is expressed in myofibroblasts but not in epithelial cells, and was detected in these experiments together with ZO-1 by co-immunostaining (FIG. 2).

B1: BMP-7: Bone morphogenetic protein (BMP)-7 (Sigma), added at 100 ng/ml (protein, UniProt P18075 293-431, looked up)
Bone morphogenetic protein 7: STGSKQRSQNRSKTPKNQEALRMANVAENSSSDQRQACKKHELYVSFRDLGWQDWIIAPEGYAAYYCEGECAFPLNSYMNATNHAIVQTLVHFINPETVPKPCCAPTQLNAISVLYFDDSSNVILKKYRNMVVRACGCH
[1]
  α-SMA expression by immunoblotting (ratio to α-tubulin) versus control: significant differences compared to the control; also recorded: significantly (p 0.002) higher
[2]
  appearance of α-SMA-expressing cells and tight junction formation: high numbers of α-SMA-expressing cells, associated with poor formation of tight junctions
